In IntAct's records for PubMed 31515488:

B1: TNF receptor-associated factor 2 (Homo sapiens), Q12933 (parent)
chain: MAAASVTPPGSLELLQPGFSKTLLGTKLEAKYLCSACRNVLRRPFQAQCGHRYCSFCLASILSSGPQNCAACVHEGIYEEGISILESSSAFPDNAARREVESLPAVCPSDGCTWKGTLKEYESCHEGRCPLMLTECPACKGLVRLGEKERHLEHECPERSLSCRHCRAPCCGADVKAHHEVCPKFPLTCDGCGKKKIPREKFQDHVKTCGKCRVPCRFHAIGCLETVEGEKQQEHEVQWLREHLAMLLSSVLEAKPLLGDQSHAGSELLQRCESLEKKTATFENIVCVLNREVERVAMTAEACSRQHRLDQDKIEALSSKVQQLERSIGLKDLAMADLEQKVLEMEASTYDGVFIWKISDFARKRQEAVAGRIPAIFSPAFYTSRYGYKMCLRIYLNGDGTGRGTHLSLFFVVMKGPNDALLRWPFNQKVTLMLLDQNNREHVIDAFRPDVTSSSFQRPVNDMNIASGCPLFCPVSKMEAKNSYVRDDAIFIKAIVDLTGL
B2: Fibronectin type III and SPRY domain-containing protein 2 (Homo sapiens), A1L4K1 (parent)
chain: MEEESGEELGLDRSTPKDFHFYHMDLYDSEDRLHLFPEENTRMRKVVQAEMANESRGAGDGKAQRDLQEEVDELVHLYGLEDDHELGDEFVDENIPRTGVSEYPPYMMKRRDPAREQRDWRLSGEAAEAEDLGFGGWGSAGQCQDLREAYRYTHGRASEEYECYVIPEEEDEEEAADVFCVTCKTPIRAFQKVFDEHKEHEVIPLNEALESAKDEIHKNMYKLEKQIIEMENFANHLEEVFITVEENFGKQEQNFESHYNEILETLAQKYEEKIQALGEKKKEKLEALYGQLVSCGENLDTCKELMETIEEMCHEEKVDFIKDAVAMADRLGKFLKTKTDVEISAQPEFEDQTLDFSDVEQLMGSINTIPAPSAPVINPQVPNSATGSSVRVCWSLYSDDTVESYQLSYRPVQDSSPGTDQAEFTVTVKETYCSVTNLVPNTQYEFWVTAHNRAGPSPSSERAVYMTAPSPPIIKTKEIRSCEEAVLICWESGNLNPVDSYTVELTQAESPEASGVTESVVGIPTCESVVQLQPGRSYIIYVRALNMGGPSVRSEPATVHTIGSYFRLNKDTCHPWLTISEDGLTAVRSERRTPARELSPSDTHFTRCVAVMGNLIPVRGHHYWEVEVDEHLDYRVGVAFADVRKQEDLGANCLSWCMRHTFASSRHKYEFLHNRTTPDIRITVPPKKIGILLDYEHSKLSFFNVDLSQHLYTFSCQLHEFVHPCFSLEKPGCLKVHNGISMPKHVTFY
partner: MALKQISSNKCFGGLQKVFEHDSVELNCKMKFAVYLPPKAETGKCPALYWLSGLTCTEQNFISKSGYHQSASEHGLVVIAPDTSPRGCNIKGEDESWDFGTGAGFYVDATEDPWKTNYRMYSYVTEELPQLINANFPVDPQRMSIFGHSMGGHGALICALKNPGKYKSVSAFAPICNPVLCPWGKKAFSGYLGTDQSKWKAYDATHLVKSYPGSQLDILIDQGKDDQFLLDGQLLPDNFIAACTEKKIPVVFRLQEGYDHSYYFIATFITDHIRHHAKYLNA
B3: DCC-interacting protein 13-beta (Homo sapiens), Q8NEU8 (parent)
chain: MPAVDKLLLEEALQDSPQTRSLLSVFEEDAGTLTDYTNQLLQAMQRVYGAQNEMCLATQQLSKQLLAYEKQNFALGKGDEEVISTLHYFSKVVDELNLLHTELAKQLADTMVLPIIQFREKDLTEVSTLKDLFGLASNEHDLSMAKYSRLPKKKENEKVKTEVGKEVAAARRKQHLSSLQYYCALNALQYRKQMAMMEPMIGFAHGQINFFKKGAEMFSKRMDSFLSSVADMVQSIQVELEAEAEKMRVSQQELLSVDESVYTPDSDVAAPQINRNLIQKAGYLNLRNKTGLVTTTWERLYFFTQGGNLMCQPRGAVAGGLIQDLDNCSVMAVDCEDRRYCFQITTPNGKSGIILQAESRKENEEWICAINNISRQIYLTDNPEAVAIKLNQTALQAVTPITSFGKKQESSCPSQNLKNSEMENENDKIVPKATASLPEAEELIAPGTPIQFDIVLPATEFLDQNRGSRRTNPFGETEDESFPEAEDSLLQQMFIVRFLGSMAVKTDSTTEVIYEAMRQVLAARAIHNIFRMTESHLMVTSQSLRLIDPQTQVSRANFELTSVTQFAAHQENKRLVGFVIRVPESTGEESLSTYIFESNSEGEKICYAINLGKEIIEVQKDPEALAQLMLSIPLTNDGKYVLLNDQPDDDDGNPNEHRGAESEA
B4: Microtubule-associated tumor suppressor candidate 2 (Homo sapiens), Q5JR59-3 (parent)
chain: MGHCCCKPYNCLQCLDKTNESALVKEKELSIELANIRDEVAFHTAKCEKLQKEKEELERRFEDEVKRLGWQQQAELQELEERLQLQFEAEMARLQEEHGDQLLSIRCQHQEQVEDLTASHDAALLEMENNHTVAITILQDDHDHKVQELMSTHELEKKELEENFEKLRLSLQDQVDTLTFQSQSLRDRARRFEEALRKNTEEQLEIALAPYQHLEEDMKSLKQVLEMKNQQIHEQEKKILELEKLAEKNIILEEKIQVLQQQNEDLKARIDQNTVVTRQLSEENANLQEYVEKETQEKKRLSRTNEELLWKLQTGDPTSPIKLSPTSPVYRGSSSGPSSPARVSTTPR
partner: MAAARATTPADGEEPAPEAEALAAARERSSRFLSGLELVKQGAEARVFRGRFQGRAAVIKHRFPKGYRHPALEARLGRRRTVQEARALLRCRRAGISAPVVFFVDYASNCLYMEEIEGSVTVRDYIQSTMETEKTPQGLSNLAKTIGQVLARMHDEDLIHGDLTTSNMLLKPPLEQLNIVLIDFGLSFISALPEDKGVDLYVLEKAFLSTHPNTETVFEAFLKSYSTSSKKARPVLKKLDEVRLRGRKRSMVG

Variants of: B1
Settings: with traf1_human TRAF1, Q13077
traf1_human TRAF1, Q13077, sequence (Q13077 whole entry): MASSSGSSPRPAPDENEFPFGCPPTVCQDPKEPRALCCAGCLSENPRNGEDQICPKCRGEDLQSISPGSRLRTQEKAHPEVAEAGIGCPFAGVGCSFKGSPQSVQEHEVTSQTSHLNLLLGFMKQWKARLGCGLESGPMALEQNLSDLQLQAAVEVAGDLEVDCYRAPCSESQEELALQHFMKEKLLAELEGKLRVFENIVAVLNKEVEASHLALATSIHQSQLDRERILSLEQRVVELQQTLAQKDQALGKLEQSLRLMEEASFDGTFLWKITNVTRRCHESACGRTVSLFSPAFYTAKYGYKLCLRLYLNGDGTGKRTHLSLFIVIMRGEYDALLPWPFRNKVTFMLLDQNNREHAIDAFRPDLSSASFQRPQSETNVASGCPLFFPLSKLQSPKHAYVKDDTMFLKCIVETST
With E276Q the “effect of a mutation on the interaction” value was “with no effect”. In the case of K278T, the “effect of a mutation on the interaction” value is reported as “with no effect”. For D462N, the “effect of a mutation on the interaction” value was “with no effect”. With V475I the “effect of a mutation on the interaction” value was “with no effect”. For D488N, the “effect of a mutation on the interaction” value was “with no effect”.

Variants of: B2
Settings: with estd_human ESD
For E720K, the “effect of a mutation on the interaction” value was “with no effect”. K333T was tested, and the “effect of a mutation on the interaction” value was “with no effect”.

Variants of: B3
Settings: with rab5c_human RAB5C
For K70R, the “effect of a mutation on the interaction” value was “with no effect”.

Variants of: B3
Settings: with cradd_human CRADD
In the case of H205R, the “effect of a mutation on the interaction” value is reported as “with no effect”.

Variants of: B3
Settings: with suv92_human SUV39H2, Q9H5I1
suv92_human SUV39H2, Q9H5I1, sequence (Q9H5I1 whole entry): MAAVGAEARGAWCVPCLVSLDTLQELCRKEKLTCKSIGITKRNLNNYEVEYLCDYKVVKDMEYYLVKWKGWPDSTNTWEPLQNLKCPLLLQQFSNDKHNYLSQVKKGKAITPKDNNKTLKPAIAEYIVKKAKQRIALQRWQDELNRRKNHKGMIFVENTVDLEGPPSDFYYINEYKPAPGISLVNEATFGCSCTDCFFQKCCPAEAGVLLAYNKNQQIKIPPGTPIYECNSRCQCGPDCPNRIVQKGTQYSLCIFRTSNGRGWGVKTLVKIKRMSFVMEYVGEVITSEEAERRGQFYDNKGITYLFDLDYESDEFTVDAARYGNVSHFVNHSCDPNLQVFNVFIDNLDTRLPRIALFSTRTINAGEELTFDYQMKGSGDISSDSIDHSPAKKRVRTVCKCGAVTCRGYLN
H205R was tested, and the “effect of a mutation on the interaction” value was “with no effect”.

Variants of: B4
Settings: with prpk_human TP53RK
In the case of A89V, the “effect of a mutation on the interaction” value is reported as “with no effect”.
